Laboratory results as given in patent EP4631959A2, “NOVEL MINIGASTRIN-DERIVED CHOLECYSTOKININ 2 RECEPTOR BINDING MOLECULES FOR IMAGING AND TARGETED RADIOTHERAPY” (priority 2022, dated 2024).
Where two headings read alike, the source gives them in different places. Starred links: 1 amine or outer side, 2 acyl side, 3 side chain; linkers in the order of their positions; H or OH if unused. Non-standard residues stand in square brackets, D forms with d. Residues, ends and D or L forms follow the SMILES beside them. *: point of attachment. Benzoyl(4-SiFtBu2) = CC(C)(C)[Si](F)(c1ccc(C(=O)*)cc1)C(C)(C)C; DOTA = O=C(O)CN1CCN(CC(=O)O)CCN(CC(=O)*)CCN(CC(=O)O)CC1; d(γGlu) = O=C(O)[C@@H](CCC(=O)[*:2])N[*:1]; 1Nal = N[C@@H](Cc1cccc2ccccc12)C(=O)O; PEG5 = NCCOCCOCCOCCOCCOCCC(=O)O; NMeNle = CCCC[C@H](NC)C(=O)O; PEG4 = NCCOCCOCCOCCOCCC(=O)O; dDap = NC[C@@H](N)C(=O)O

What was measured:
CCK-2R = target: T1, CCK-2R (Rattus norvegicus, UniProt P30553); test: Determination of IC50: CCK-2R affinity on AR4-2J cells, competition with [^177Lu]Lu-DOTA-PP-F11N; type: binding; settings: AR4-2J cells
T1 construct: The CCK-2R expressing rat pancreatic tumor cells AR4-2J; host or cells: AR4-2J rat pancreatic tumor cells
T1 sequence (P30553 1-452): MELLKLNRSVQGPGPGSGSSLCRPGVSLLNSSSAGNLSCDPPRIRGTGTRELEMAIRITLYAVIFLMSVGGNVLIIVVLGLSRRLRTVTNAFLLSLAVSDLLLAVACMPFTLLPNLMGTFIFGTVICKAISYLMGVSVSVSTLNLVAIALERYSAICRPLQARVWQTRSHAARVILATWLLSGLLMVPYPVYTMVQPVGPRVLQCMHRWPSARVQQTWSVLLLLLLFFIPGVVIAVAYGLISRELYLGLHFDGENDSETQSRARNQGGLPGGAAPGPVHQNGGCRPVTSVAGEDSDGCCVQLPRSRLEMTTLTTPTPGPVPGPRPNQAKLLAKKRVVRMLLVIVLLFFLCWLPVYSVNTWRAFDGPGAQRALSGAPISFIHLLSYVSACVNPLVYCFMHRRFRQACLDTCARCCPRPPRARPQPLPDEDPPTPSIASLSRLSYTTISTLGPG
Outline: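 Competitive displacement of 0.3 pmol/well [177Lu]Lu-DOTA-PP-F11N by compounds (10^-10 to 10^-4 M) on AR4-2J cells in BSA-supplemented medium, 3 h at 37 °C. Free label was collected from medium plus PBS rinse, and cell-bound label was recovered with 1 M NaOH, both measured by γ-counter. Each IC50 was determined twice, in triplicate.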

[1] = target: T2, Human serum albumin (HSA) (Homo sapiens, UniProt P02768); test: Determination of HSA binding on a Chiralpak HSA column; type: in vitro ADME; settings: for HSA binding [%]: Tab. 8, metal not stated (Fig. 18: ^natLu)
T2 construct: purchased Daicel, Tokyo, Japan H13H-2433
Procedure: Human serum albumin (HSA) binding of the CCK-2R-targeted compounds was determined as reported by Valko et al., using a Chiralpak HSA column (50 x 3 mm, 5 µm, H13H-2433, Daicel, Tokyo, Japan) at a constant flow rate of 0.5 mL/min at rt. Therefore, an aq. solution of NH4OAc (pH = 6.9, 50 mM) as mobile phase A and isopropanol as mobile phase B were freshly prepared. In order to calibrate the column prior to the experiments, the retention times of nine reference substances with a HSA binding in the range of 13 to 99% were determined using a gradient of 100% A (0 to 3 min), followed by 80% A (3 to 40 min). Furthermore, all substances tested, were dissolved in a mixture (1/1, v/v) of A and B reaching a final concentration of 0.5 mg/mL. The HSA binding of all rhCCK ligands tested, was determined using the same gradient as for the calibration probes. The non-linear regression of the calibration experiments and the CCK-2R ligands (Fig. 29) was established using the OriginPro 2016G software (Northampton, United States).

[2] = n-Octanol-PBS distribution coefficient (logD7.4); type: physicochemical; settings: for logD7.4 (n ≥ 5), ^177Lu-labeled: pH = 7.4, ^177Lu-labeled
Procedure: Approximately 1 MBq of the labeled tracer was dissolved in 1 mL of a 1/1 mixture (v/v) of phosphate buffered saline (PBS, pH = 7.4) and n-octanol in an Eppendorf tube (1.5 mL). After vigorous mixing of the suspension for 3 min at rt, the vial was centrifuged at 9,000 rpm for 5 min (Biofuge 15, Heraeus Sepatech, Osterode, Germany) and 200 µL aliquots of both layers were measured in a γ-counter. The experiment was repeated at least five times.

[3] = ^natLu-labeled, read-out: IC50 [nM] (n = 3), ^natLu-labeled
[4] = read-out: IC50 [nM] (n = 3), ^natGa-labeled, ^natGa-labeled

T2 sequence (P02768 25-609): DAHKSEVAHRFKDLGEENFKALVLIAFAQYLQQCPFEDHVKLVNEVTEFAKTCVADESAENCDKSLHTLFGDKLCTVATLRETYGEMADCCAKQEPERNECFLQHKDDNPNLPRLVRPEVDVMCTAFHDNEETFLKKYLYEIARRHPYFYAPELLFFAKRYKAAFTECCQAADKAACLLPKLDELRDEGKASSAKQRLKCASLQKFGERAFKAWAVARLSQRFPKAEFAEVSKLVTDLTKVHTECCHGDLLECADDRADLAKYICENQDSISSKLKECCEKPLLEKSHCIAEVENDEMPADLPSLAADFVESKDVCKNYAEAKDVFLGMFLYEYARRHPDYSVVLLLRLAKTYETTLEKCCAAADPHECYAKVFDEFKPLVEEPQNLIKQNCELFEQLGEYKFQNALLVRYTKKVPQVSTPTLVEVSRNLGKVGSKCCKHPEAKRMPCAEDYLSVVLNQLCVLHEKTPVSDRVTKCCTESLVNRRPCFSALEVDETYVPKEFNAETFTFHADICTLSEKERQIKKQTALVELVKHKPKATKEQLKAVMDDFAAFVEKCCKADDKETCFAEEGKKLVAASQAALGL

Row | IC50 (CCK-2R; ^natCu-labeled, read-out: IC50 [nM] (n = 3), ^natCu-labeled) | IC50 (CCK-2R; ^natGa-labeled, read-out: IC50 [nM] (n = 3), ^natGa-labeled) | SMILES | IC50 (CCK-2R; [3]) | HSA binding [%], ^natCu-labeled [1] | HSA binding [%], ^natGa-labeled [1] | HSA binding [%], ^natLu-labeled [1] | logD7.4 (n ≥ 5), ^64Cu-labeled ([2]; pH = 7.4, ^64Cu-labeled) | logD7.4 (n ≥ 5), ^67Ga-labeled ([2]; pH = 7.4, ^67Ga-labeled) | logD7.4 (n ≥ 5), ^177Lu-labeled [2] | IC50 (CCK-2R; [4]) | HSA binding [%] [1]
1 | 5.8 ± 0.2 nM | 6 ± 1 nM | CCCC[C@@H](C(=O)N[C@@H](CC(=O)O)C(=O)N[C@@H](Cc1cccc2ccccc12)C(N)=O)N(C)C(=O)[C@H](Cc1c[nH]c2ccccc12)NC(=O)CCOCCOCCOCCOCCNC(=O)[C@@H](CCC(=O)O)NC(=O)CN1CCN(CC(=O)O)CCN(CC(=O)O)CCN(CC(=O)O)CC1 [DOTA-CCK-66.2, DOTA-glu-(PEG)3-Trp-(N-Me)Nle-Asp-1-Nal-NH2] ({DOTA}-[dE][PEG4]W[NMeNle]D[1Nal]-NH2) | 4.8 ± 0.9 nM | 61.1% | 54.2% | 72.7% | −2.84 ± 0.08 | −2.55 ± 0.04 | −2.69 ± 0.09 |  | 
2 |  |  | CCCC[C@@H](C(=O)N[C@@H](CC(=O)O)C(=O)N[C@@H](Cc1cccc2ccccc12)C(N)=O)N(C)C(=O)[C@H](Cc1c[nH]c2ccccc12)NC(=O)CCOCCOCCOCCOCCNC(=O)CC[C@@H](NC(=O)CCOCCOCCOCCOCCOCCNC(=O)[C@@H](CNC(=O)c1ccc([Si](F)(C(C)(C)C)C(C)(C)C)cc1)NC(=O)CN1CCN(CC(=O)O)CCN(CC(=O)O)CCN(CC(=O)O)CC1)C(=O)O [DOTA-rhCCK-67, DOTA-dap(SiFA)-(PEG)4-γ-glu-(PEG)3-Trp-(N-Me)Nle-Asp-1-Nal-NH2] ({DOTA}-[dDap](Benzoyl(4-SiFtBu2))[PEG5][d(γGlu)][PEG4]W[NMeNle]D[1Nal]-NH2) | 13 ± 1.1 nM |  |  |  |  |  | −1.05 ± 0.09 | 49.5 ± 3.7 nM | 92.9%
3 |  |  | CCCC[C@@H](C(=O)N[C@@H](CC(=O)O)C(=O)N[C@@H](Cc1cccc2ccccc12)C(N)=O)N(C)C(=O)[C@H](Cc1c[nH]c2ccccc12)NC(=O)CCOCCOCCOCCOCCNC(=O)CC[C@@H](NC(=O)CCOCCOCCOCCOCCOCCNC(=O)CC[C@@H](NC(=O)[C@@H](CNC(=O)c1ccc([Si](F)(C(C)(C)C)C(C)(C)C)cc1)NC(=O)CN1CCN(CC(=O)O)CCN(CC(=O)O)CCN(CC(=O)O)CC1)C(=O)O)C(=O)O [DOTA-rhCCK-68, DOTA-dap(SiFA)-γ-glu-(PEG)4-γ-glu-(PEG)3-Trp-(N-Me)Nle-Asp-1-Nal-NH2] | 15.4 ± 1.1 nM |  |  |  |  |  | −1.65 ± 0.09 | 36.9 ± 5.4 nM | 91.2%
4 |  |  | CCCC[C@@H](C(=O)N[C@@H](CC(=O)O)C(=O)N[C@@H](Cc1cccc2ccccc12)C(N)=O)N(C)C(=O)[C@H](Cc1c[nH]c2ccccc12)NC(=O)CCOCCOCCOCCOCCNC(=O)CC[C@@H](NC(=O)CCOCCOCCOCCOCCOCCOCCOCCOCCOCCOCCOCCOCCNC(=O)CC[C@@H](NC(=O)[C@@H](CNC(=O)c1cc(C(=O)O)cc([Si](F)(C(C)(C)C)C(C)(C)C)c1)NC(=O)CN1CCN(CC(=O)O)CCN(CC(=O)O)CCN(CC(=O)O)CC1)C(=O)O)C(=O)O [DOTA-rhCCK-69, DOTA-dap(SiFA-ipa)-γ-glu-(PEG)11-γ-glu-(PEG)3-Trp-(N-Me)Nle-Asp-1-Nal-NH2] | 43.1 ± 1.7 nM |  |  |  |  |  | −2.11 ± 0.09 |  | 84.7%
